Reference: the RNAGym collection of RNA variant scans (doi:10.7554/elife.80360)

B1: HDV Ribozyme (parent)
chain: GGCCGGCAUGGUCCCAGCCUCCUCGCUGGCGCCGGCUGGGCAACAUUCCGAGGGGACCGUCCCCUCGGUAAUGGCGAAUGGGACCCA

Variants of: B1
Experiment: self-cleavage, relative activity (ratio to wild type); higher = more cleavage; co-transcriptional

Row | Variant | self-cleavage
1 | GGCCGGCUUGGUCCCCGCCUCCUCGCUGGCGCCGGCUGGGCAACAUUCCGAGGGGACCGUCCCCUCGGUAAUGGCGAAUGGGACCCA [A8U A16C] | 0.831
2 | GGCCGGCUUGGUCCCAGCCUCCUCGCUGGCGCCGGAUGGGCAACAUUCCGAGGGGACCGUCCCCUCGGUAAUGGCGAAUGGGACCCA [A8U C36A] | 0.0811
3 | GGCCGGCUUGGUCCCAGCCUCCUCGCUGGCGCCGGUUGGGCAACAUUCCGAGGGGACCGUCCCCUCGGUAAUGGCGAAUGGGACCCA [A8U C36U] | 0.554
4 | GGCCGGCUUGGUCCCAGCCUCCUCGCUGGCGCCGGGUGGGCAACAUUCCGAGGGGACCGUCCCCUCGGUAAUGGCGAAUGGGACCCA [A8U C36G] | 0.125
5 | GGCCGGCGUGGUCCCAGCCUCCUCGCUGGCGCCGGCUGGGCAACAUUCCGAGGGGACCGUCCCCUCGGUAACGGCGAAUGGGACCCA [A8G U72C] | 0.293
6 | GGCCGGCGUGGUCCCAGCCUCCUCGCUGGCGCCGGCUGGGCAACAUUCCGAGGGGACCGUCCCCUCGGUAAAGGCGAAUGGGACCCA [A8G U72A] | 0.554
7 | GGCCGGCUUGGUCCCACCCUCCUCGCUGGCGCCGGCUGGGCAACAUUCCGAGGGGACCGUCCCCUCGGUAAUGGCGAAUGGGACCCA [A8U G17C] | 0.0755
8 | GGCCGGCUUGGUCCCAGCCUCCUCGCUGGCGCCGGCUGGGCAAGAUUCCGAGGGGACCGUCCCCUCGGUAAUGGCGAAUGGGACCCA [A8U C44G] | 0.731
9 | GGCCGGCUUGGUCCCAGCCUCCUCGCUGGCGCCGGCUGGGCAAAAUUCCGAGGGGACCGUCCCCUCGGUAAUGGCGAAUGGGACCCA [A8U C44A] | 0.449
10 | GGCCGGCUUGGUCCCAGCCUCCUCGCUGGCGCCGGCUGGGCAAUAUUCCGAGGGGACCGUCCCCUCGGUAAUGGCGAAUGGGACCCA [A8U C44U] | 0.415
11 | GGCCGGCUUAGUCCCAGCCUCCUCGCUGGCGCCGGCUGGGCAACAUUCCGAGGGGACCGUCCCCUCGGUAAUGGCGAAUGGGACCCA [A8U G10A] | 0.684
12 | GGCCGGCUUUGUCCCAGCCUCCUCGCUGGCGCCGGCUGGGCAACAUUCCGAGGGGACCGUCCCCUCGGUAAUGGCGAAUGGGACCCA [A8U G10U] | 0.341
13 | GGCCGGCUUGGUCUCAGCCUCCUCGCUGGCGCCGGCUGGGCAACAUUCCGAGGGGACCGUCCCCUCGGUAAUGGCGAAUGGGACCCA [A8U C14U] | 0.864
14 | GGCCGGCUUGGUCCCAGCCUCCUCGCUGGCGCCGGCUGGGCAACAUUCCGAGGGGAUCGUCCCCUCGGUAAUGGCGAAUGGGACCCA [A8U C57U] | 0.91
15 | GGCCGGCUUGGUCCCAGCCUCUUCGCUGGCGCCGGCUGGGCAACAUUCCGAGGGGACCGUCCCCUCGGUAAUGGCGAAUGGGACCCA [A8U C22U] | 0.598
16 | GGCCGGCUUGGUCCCAGCCUCGUCGCUGGCGCCGGCUGGGCAACAUUCCGAGGGGACCGUCCCCUCGGUAAUGGCGAAUGGGACCCA [A8U C22G] | 0.19

Row | Variant | self-cleavage
17 | GGCCGGCGUGGUCCCAGCCUCCUCGCUGGCGCCGGCUGGGCAACAUUCCGAGGGGACCGUCCCCUCGGCAAUGGCGAAUGGGACCCA [A8G U69C] | 1.16
18 | GGCCGGCGUGGUCCCAGCCUCCUCGCUGGCGCCGGCUGGGCAACAUUCCGAGGGGACCGUCCCCUCGGGAAUGGCGAAUGGGACCCA [A8G U69G] | 1.19
19 | GGCCGGCUUGGUCCCAGCCUCCUCGCUGGCGCCGGCUGGGCAACAUUCCGAGGGGACCGUCCCCUCGGUAAUGGUGAAUGGGACCCA [A8U C75U] | 0.298
20 | GGCCGGCUUGGUCCCAGCCUCCUCGCUGGCGCCGGCUGGGCAACAUUCCGAGGGGACCGUCCCCUCGGUAAUGGAGAAUGGGACCCA [A8U C75A] | 0
21 | GGCCGGCUUGGUCCCAGCCUCCUCGCUGGCGCCGGCUGGGCAACCUUCCGAGGGGACCGUCCCCUCGGUAAUGGCGAAUGGGACCCA [A8U A45C] | 0.166
22 | GGCCGGCUUGAUCCCAGCCUCCUCGCUGGCGCCGGCUGGGCAACAUUCCGAGGGGACCGUCCCCUCGGUAAUGGCGAAUGGGACCCA [A8U G11A] | 0.151
23 | GGCCGGCUUGGUCCCAGCCUCCUCGCUGGCGCCGGCUGGGCUACAUUCCGAGGGGACCGUCCCCUCGGUAAUGGCGAAUGGGACCCA [A8U A42U] | 0.314
24 | GGCCGGCUUGGUCCCAGCCUCCUCGCUGGCGCCGGCUGGGCAACAUUCCGAGGGGACCGUCCCCUCGGUAAUGGCGAUUGGGACCCA [A8U A78U] | 0.128
25 | GGCCGGCUUGGUCCCAGCCUCCUCGCUGGCGCCGGCUGGGCAACAUUCCGAGGGGACCGUCCCCUCGGUAAUGGCGAGUGGGACCCA [A8U A78G] | 0.388
26 | GGCCGGCUUGGUCCCAGCCUCCUUGCUGGCGCCGGCUGGGCAACAUUCCGAGGGGACCGUCCCCUCGGUAAUGGCGAAUGGGACCCA [A8U C24U] | 0.787
27 | GGCCGGCUUGGUCCCAGCCUCCUAGCUGGCGCCGGCUGGGCAACAUUCCGAGGGGACCGUCCCCUCGGUAAUGGCGAAUGGGACCCA [A8U C24A] | 0.208
28 | GGCCGGCUUGGUCCCAGCCUCCUCGCUGGCGCCGGCUGGGCAACAUUCCGAGGGGACUGUCCCCUCGGUAAUGGCGAAUGGGACCCA [A8U C58U] | 1.15
29 | GGCCGGCUUGGUCCCAGCCUCCUCGCUGGCGCCGGCUGGGCAACAUUCCGAGGGGACAGUCCCCUCGGUAAUGGCGAAUGGGACCCA [A8U C58A] | 0.862
30 | GGCCGGCUUGGUCCGAGCCUCCUCGCUGGCGCCGGCUGGGCAACAUUCCGAGGGGACCGUCCCCUCGGUAAUGGCGAAUGGGACCCA [A8U C15G] | 0.277
31 | GGCCGGCUUGGUCCAAGCCUCCUCGCUGGCGCCGGCUGGGCAACAUUCCGAGGGGACCGUCCCCUCGGUAAUGGCGAAUGGGACCCA [A8U C15A] | 0.369
32 | GGCCGGCUUGGUCCCAGCCUCCUCGCUGGCGCCGGCUGGGCAACAUUCCGAGGGGCCCGUCCCCUCGGUAAUGGCGAAUGGGACCCA [A8U A56C] | 1.25
